Bridge positions count the residues as written; N and C are the ends. Ends that are not written are not given here.
How the values were obtained:
[1] = test system: human prostate cancer cells with known high PSMA expression; assay: In vivo biodistribution and PET images in xenograft mouse models of high-PSMA prostate tumor cell line; conditions: data not shown
c-MET receptors = molecular target: T1, c-MET receptors (Homo sapiens, UniProt P08581); assay: In vitro saturation binding assay with MKN-45, SNU-16 or U87-MG cells
T1 construct: endogenous in cells; host or cells: MKN-45, SNU-16 or U87-MG cells
T1 sequence (P08581 25-1390): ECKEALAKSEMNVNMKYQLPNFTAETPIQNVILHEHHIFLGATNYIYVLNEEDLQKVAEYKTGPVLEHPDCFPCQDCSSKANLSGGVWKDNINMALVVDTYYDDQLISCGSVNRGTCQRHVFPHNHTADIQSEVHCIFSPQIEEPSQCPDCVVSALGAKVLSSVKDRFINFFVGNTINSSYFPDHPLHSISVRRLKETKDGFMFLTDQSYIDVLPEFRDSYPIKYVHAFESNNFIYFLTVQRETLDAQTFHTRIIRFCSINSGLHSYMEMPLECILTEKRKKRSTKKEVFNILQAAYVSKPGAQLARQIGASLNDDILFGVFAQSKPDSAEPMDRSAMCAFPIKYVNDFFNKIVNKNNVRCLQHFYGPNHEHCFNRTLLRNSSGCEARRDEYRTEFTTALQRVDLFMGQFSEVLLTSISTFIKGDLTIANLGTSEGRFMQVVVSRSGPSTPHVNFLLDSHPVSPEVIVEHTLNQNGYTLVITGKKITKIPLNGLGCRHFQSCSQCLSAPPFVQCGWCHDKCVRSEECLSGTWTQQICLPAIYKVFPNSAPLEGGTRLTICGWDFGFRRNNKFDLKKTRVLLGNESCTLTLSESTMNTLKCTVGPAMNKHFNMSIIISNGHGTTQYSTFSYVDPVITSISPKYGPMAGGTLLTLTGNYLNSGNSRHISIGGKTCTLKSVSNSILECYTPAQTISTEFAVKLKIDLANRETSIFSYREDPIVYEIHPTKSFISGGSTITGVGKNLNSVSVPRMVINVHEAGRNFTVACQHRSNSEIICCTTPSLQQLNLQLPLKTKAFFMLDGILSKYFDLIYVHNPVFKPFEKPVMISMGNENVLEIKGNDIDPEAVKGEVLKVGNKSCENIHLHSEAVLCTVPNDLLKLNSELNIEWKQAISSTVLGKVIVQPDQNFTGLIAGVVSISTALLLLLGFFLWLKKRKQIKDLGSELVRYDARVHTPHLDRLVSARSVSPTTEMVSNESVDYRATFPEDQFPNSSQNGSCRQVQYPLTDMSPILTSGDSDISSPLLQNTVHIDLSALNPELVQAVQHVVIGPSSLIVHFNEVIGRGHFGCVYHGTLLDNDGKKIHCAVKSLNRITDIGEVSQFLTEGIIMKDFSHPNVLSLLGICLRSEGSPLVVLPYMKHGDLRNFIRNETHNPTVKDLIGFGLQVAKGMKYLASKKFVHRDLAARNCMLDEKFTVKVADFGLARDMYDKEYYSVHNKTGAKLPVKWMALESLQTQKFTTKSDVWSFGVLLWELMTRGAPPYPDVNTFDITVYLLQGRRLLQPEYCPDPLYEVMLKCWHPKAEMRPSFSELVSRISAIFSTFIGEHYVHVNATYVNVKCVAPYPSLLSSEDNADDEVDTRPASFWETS
Experimental: In vitro saturation assays were performed to determine the binding affinity of Compound 1 for c-MET receptors. Increasing concentrations of Compound 1 were incubated with MKN-45, SNU-16 or U87-MG cells. Non-specific binding was determined in the presence of an unlabeled Met peptide (10^−5 M). Bound peptide was separated from free peptide and the radioactive content was determined. Data was analyzed using a one site binding hyperbola. […] The binding constant was determined to be 3.9 nM. In addition, the estimated Met expression levels (2.4×10^6 receptors per cell) were consistent with known expression in MKN-45, SNU-16, and U87-MG cells. […] (data not shown)

[2] = test system: U87-MG (low Met) xenografts; format: in vivo, mouse
[3] = test system: SNU-16 (moderate Met) xenografts; format: in vivo, mouse
[4] = test system: MKN-45 (high Met) xenografts
[5] = reported labeled albumin; cited from earlier work

O=C(O)CC[C@H](NC(=O)N[C@@H](CCCCNC(=O)c1ccc([18F])nc1)C(=O)O)C(=O)O [[^18F]DCFPyL]
biodistributions and PET images vs previously reported results [1]: comparable with previously reported results

Compound 1: 18F-labeled c-Met peptide; cyclic peptide of SEQ ID NO: 1 reacted with [18F]fluoronicotinic acid-2,3,5,6-tetrafluorophenyl ester (AGSCYCSGPPRFECWCYETEGTGGGK; disulfide 6-14, 4-16; also: [18F]fluoronicotinoyl conjugated via tetrafluorophenyl ester, site not given here)
specific binding to Met (c-MET receptors; MKN-45 cells, non-specific binding with unlabeled Met peptide 10^−5 M): > 90% | Kd (c-MET receptors; MKN-45 cells, saturation assay, one site binding hyperbola, read-out: binding constant): 3.9 nM | ability to distinguish c-MET concentrations (c-MET receptors; SNU-16 and U87-MG cell lines, data not shown): can distinguish c-MET concentrations | estimated Met expression levels (c-MET receptors; from saturation binding): 2.4×10^6 receptors per cell | PET tumor discernibility ([2]; U87-MG tumors): more difficult to distinguish | Tumor:Muscle ratio over time course ([2]; mouse, in vivo): 3:1-5:1 | fold decrease of tumor uptake vs MKN-45 tumors ([2]; mouse, in vivo): 3-40 fold | PET tumor discernibility ([3]; SNU-16 tumors): discernable | Tumor:Muscle ratio over time course ([3]; mouse, in vivo): 7:1-18:1 | fold decrease of T:M vs MKN-45 T:M ([3]; mouse, in vivo): 2-60 fold | fold decrease of tumor uptake vs MKN-45 tumors ([3]; mouse, in vivo): 2-6 fold | PET visualization ([4]; MKN xenografts, 30 to 120 min post-injection): tumors, kidneys and bladder could be visualized | PET tumor discernibility ([4]; MKN-45 and SNU-16 xenografts, images at 30, 60, 120 min): discerned as early as 30 min | decrease of T:M ratio on blocking with unlabeled Met peptide ([4]; MKN-45 xenografts, compared to unblocked): 65% | decrease of tumor uptake from 30 to 120 min ([4]; mouse, in vivo): approximately 37% | tumor retention and non-target clearance ([4]; mouse, in vivo): highly retained in MKN-45 tumors (high Met expression) and rapidly cleared from non-target tissue

B1: [^18F]albumin: albumin radiolabeled by conjugating Compound 3 to pendant amine groups (protein, UniProt P02770 25-608, looked up)
Albumin: EAHKSEIAHRFKDLGEQHFKGLVLIAFSQYLQKCPYEEHIKLVQEVTDFAKTCVADENAENCDKSIHTLFGDKLCAIPKLRDNYGELADCCAKQEPERNECFLQHKDDNPNLPPFQRPEAEAMCTSFQENPTSFLGHYLHEVARRHPYFYAPELLYYAEKYNEVLTQCCTESDKAACLTPKLDAVKEKALVAAVRQRMKCSSMQRFGERAFKAWAVARMSQRFPNAEFAEITKLATDVTKINKECCHGDLLECADDRAELAKYMCENQATISSKLQACCDKPVLQKSQCLAEIEHDNIPADLPSIAADFVEDKEVCKNYAEAKDVFLGTFLYEYSRRHPDYSVSLLLRLAKKYEATLEKCCAEGDPPACYGTVLAEFQPLVEEPKNLVKTNCELYEKLGEYGFQNAVLVRYTQKAPQVSTPTLVEAARNLGRVGTKCCTLPEAQRLPCVEDYLSAILNRLCVLHEKTPVSEKVTKCCSGSLVERRPCFSALTVDETYVPKEFKAETFTFHSDICTLPDKEKQIKKQTALAELVKHKPKATEDQLKTVMGDFAQFVDKCCKAADKDNCFATEGPNLVARSKEALA
modifications: 18F-labeled via Compound 3
notes: albumin radiolabeled by conjugating Compound 3 to pendant amine groups
blood pool imaging property [5]: excellent blood pool imaging property
